This experiment deals with Mcl-1 (myeloid cell leukemia-1), recombinant protein (UniProt Q07820). In words: SPR.

Usually IC50 stands for the point on the concentration scale where inhibition reaches its midpoint.

In the case of Noxa BH3 peptide, the IC50 was found to be 62 nM.

Source of the values: article PMC4174574.
